A value given as a limit tells only on which side of the number the result lay.

The target in experiment [1] is T1, human HER3 expressed on cells (HEK293 HER3 O/E cells) (human, UniProt P21860 20-1342).
T1 construct: Also used here for HER3 on U2OS cells of the PathHunter kit and on cancer cell lines; also called HEK293 cells transfected with vector encoding human HER3; human HER3-expressing cells
Briefly: flow cytometry on HEK293T HER3 O/E cells, 10 ug antibody as printed, FITC-conjugated anti-Fc secondary. As to the method:
(§1) The cells were washed with buffer (PBS with 2 mM EDTA and 0.5% BSA) and resuspended in FITC-conjugated anti-FC antibody (Invitrogen, USA) at 10 μg/ml for 20 min at 4° C. Cells were washed again and resuspended in 200 μL of FACS flow buffer (PBS with 5 mM EDTA) for flow cytometric analysis using MACSQuant 10 (Miltenyi Biotec, Germany). Unstained WT and transfected HEK293 cells were included in the analysis as negative controls. After acquisition, all raw data were analyzed using Flowlogic software. Cells were gated using forward and side scatter profile percentage of positive cells was determined for native and overexpressing cell populations.
In general terms: Flow cytometry measures light scatter and fluorescence of single cells or particles in a stream.

Experiment [2] concerns the target T1, human HER3 expressed on cells (HEK293 …). Briefly: flow cytometry, HEK293 cells overexpressing human HER3 (293_OE HER3), 20 ug/ml antibody, FITC anti-Fc secondary; same antibody on 293 cells: 2.78; unstained 293: 0.14.
Experiment [3] has as its target T2, hCD16a (human, UniProt P08637 17-208, limits assumed).
T2 construct: also called human CD16a
Description: BLI; day 0 of storage at 40 °C/80% RH. Background: BLI is a label-free optical method that tracks binding on a fibre tip over time.

The target of experiment [4] is T3, human HER3 polypeptide (human, UniProt P21860 20-643).
T3 construct: Recombinant antigen of the ELISAs; also called human HER3 (Sino Biological Inc.); human antigen HER3
Briefly: BLI; day 0 of storage at 40 °C/80% RH.

For experiment [5], the target named is T4, His-tagged human HER3 (human, UniProt P21860 20-643).
T4 construct: Antigen of the BLI experiments and of the HER2-Fc dimerisation ELISA; also called HER3 His; not shown: His tag
Description: BLI (Octet QK384), antibody on anti-human IgG capture tips, His-tagged human HER3 in solution, global one-site fit. The essentials:
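Anti-HER3 IgG1 antibodies (25 nM) were captured on anti-human IgG sensor tips and binding to human HER3 was measured at 25° C with agitation at 1000 rpm.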

In experiment [6] the target is T2, hCD16a. Description: BLI; after 15 days at 40 °C/80% RH.
The target of experiment [7] is T3, human HER3 polypeptide. Description: BLI; after 15 days at 40 °C/80% RH.
Experiment [8] has as its target T1, human HER3 expressed on cells (HEK293 …). Briefly: flow cytometry on HEK293T HER3 O/E cells, 10 ug antibody as printed, FITC-conjugated anti-Fc secondary. As to the method:
as §1
This is another data set of the same source.

Experiment [9] concerns the target T2, hCD16a. Briefly: BLI; after 7 days at 40 °C/80% RH.
The target of experiment [10] is T3, human HER3 polypeptide. Briefly: BLI; after 7 days at 40 °C/80% RH.
The next experiment deals with T5, moFcgRIV.
T5 construct: also called CD16-2; mFcγRIV
T5 chain: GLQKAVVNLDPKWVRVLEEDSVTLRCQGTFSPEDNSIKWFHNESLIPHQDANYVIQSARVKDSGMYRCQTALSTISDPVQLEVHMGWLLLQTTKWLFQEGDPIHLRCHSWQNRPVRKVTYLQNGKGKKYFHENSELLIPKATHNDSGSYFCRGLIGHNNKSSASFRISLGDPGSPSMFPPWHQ
Description: Bio-Layer Interferometry (determined as described in Example 7).

A further experiment has as its target T6, moFcRn (mouse, UniProt Q61559).
T6 construct: recombinant; also called mouse FcRn; gene FCGRT (so in the source)
T6 sequence (receptor, looked up): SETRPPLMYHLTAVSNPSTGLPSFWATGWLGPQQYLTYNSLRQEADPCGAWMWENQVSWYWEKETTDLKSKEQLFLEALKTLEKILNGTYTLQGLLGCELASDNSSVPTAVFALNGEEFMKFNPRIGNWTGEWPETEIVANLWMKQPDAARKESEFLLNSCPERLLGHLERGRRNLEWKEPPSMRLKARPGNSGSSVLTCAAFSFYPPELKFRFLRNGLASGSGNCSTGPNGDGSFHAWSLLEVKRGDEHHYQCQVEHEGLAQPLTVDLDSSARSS
T6 sequence (looked up): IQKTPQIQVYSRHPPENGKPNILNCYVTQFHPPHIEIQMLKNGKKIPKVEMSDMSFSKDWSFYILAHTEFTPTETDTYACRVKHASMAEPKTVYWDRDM
Described as above.

Experiment [11] has as its target T4, His-tagged human HER3. Briefly: BLI (Octet QK384), antibody on anti-human IgG capture tips, His-tagged human HER3 in solution, global 1:1 fit, R^2 = 0.9902, kon Error 1.12E+04; Response 0.1471 / 0.2882 / 0.3968 / 0.5458 at 35 / 69 / 139 / 278 nM. How it is done:
The anti-HER3 antibody clones in IgG1 format were analysed for binding affinity to human HER3. Bio-Layer Interferometry (BLI) experiments were performed using the Octet QK384 system (ForteBio). anti-Human IgG Capture (AHC) Octet sensor tips (Pall ForteBio, USA) were used to anti-HER3 antibodies (25 nM). All measurements were performed at 25° C. with agitation at 1000 rpm. […] Sensograms were referenced for buffer effects and then fitted using the Octet QK384 user software (Pall ForteBio, USA). Kinetic responses were subjected to a global fitting using a one site binding model to obtain values for association (Kₒₙ), dissociation (Koff) rate constants and the equilibrium dissociation constant (KD). Only curves that could be reliably fitted with the software (R²>0.90) were included in the analysis.

B1: 10D1F.FcA (anti-HER3 clone 10D1_c89 IgG1) (antibody)
heavy: not shown
light: DIQMTQSPSSVSASVGDRVTITCKASQIVGSNVAWYQQKPGKAPEPLIYSASYLYSGVPSRFSGSGSGTDFTLTISSLQPEDFATYYCQQYSSHPLTFGQGTKLEIKRTVAAPSVFIFPPSDEQLKSGTASVVCLLNNFYPREAKVQWKVDNALQSGNSQESVTEQDSKDSTYSLSSTLTLSKADYEKHKVYACEVTHQGLSSPVTKSFNRGEC
notes: also called 10D1F.A; HMBD-001
For the molecule B1, the “% Parent (HER3 positive)” value was found to be 73.3% in [1], 44.6% in experiment [2] and 73.3% in [8]. Besides, the equilibrium dissociation constant (Kd) with hCD16a [3] was 294 nM; with human HER3 polypeptide [4] it was below 1 pM; with His-tagged human HER3 [5] it was 0.0726 nM; with hCD16a [6], 265 nM; in the experiment with human HER3 polypeptide [7], below 1 pM; with hCD16a [9], 302 nM. The Kd is below 1 pM with human HER3 polypeptide [10], 1810 nM in the experiment with moFcgRIV and 14.6 nM with moFcRn. In the experiment with His-tagged human HER3 [11], this molecule showed an on-rate constant (kon) of 297000 M⁻¹ s⁻¹.

One may read the Kd as the free concentration of one partner at which half of the binding sites on the other are occupied at equilibrium, for simple one-to-one binding. A high value points to weaker binding. For orientation: kon means a measure of how fast the partners come together. Lower therefore signals slower complex formation.

(Values after US20250122303A1 (HUMMINGBIRD BIOSCIENCE PTE, published 2025).)
